pKd: −log10 of the molar value.
Legend:
Test in all cases: IEDB peptide-MHC binding, purified MHC/competitive/radioactivity; filed as Kd, often an IC50 or EC50 that approximates it; ≥ and ≤ were set here for values at or beyond the usual limits of such assays
Details in all cases: source organism: Plasmodium falciparum 3D7
HLA-A*02:01 = biological target: HLA-A*02:01
HLA-A*02:02 = biological target: HLA-A*02:02
HLA-A*02:03 = biological target: HLA-A*02:03
HLA-A*02:06 = biological target: HLA-A*02:06
HLA-A*68:02 = biological target: HLA-A*68:02

| Sequence | pKd (HLA-A*02:01) | pKd (HLA-A*02:02) | pKd (HLA-A*02:03) | pKd (HLA-A*02:06) | pKd (HLA-A*68:02) |
| --- | --- | --- | --- | --- | --- |
| NQMIFVSSI | 6.60 | 7.68 | 8.44 | 7.85 | 6.70 |
| RLFEESLGI |  | 8.72 | 8.26 | 7.17 | 6.38 |
| RLPVICSFLV |  | 8.60 | 7.48 | 7.72 | 5.04 |
| NILIVLYYL | ≤ 5.00 | 5.79 | 5.06 | 5.96 | ≤ 5.00 |
| VLFLQMMNV | 7.51 | 8.74 | 8.57 | 8.02 | 6.49 |
| VICSFLVFLV |  | 6.38 | 5.54 | 6.71 | 5.71 |
| YQDPQNYEL | 7.10 | 7.74 | 6.36 | 7.28 | ≤ 5.00 |
| LLNESNIFL | 7.37 | 8.60 | 7.62 | 6.84 | 5.35 |
| ATYGIIVPV | 8.49 | 8.70 | 8.55 | 8.30 | 7.68 |
| FMNRFYITT |  | 7.74 |  | 6.00 | 5.18 |
| FLVFLVFSNV | 6.57 | 6.67 |  | 6.63 | 5.27 |
